“And” between values parts separate entries of the source, which are not always exact repeats. Equal values may be shown once. “Also recorded” adds a separate entry of the source.
Columns and labels:
[1] = biological target: T1, denatured soluble domain of the EGFR (sEGFR) (Homo sapiens, UniProt P00533); test: competition ELISA with biotinylated mAb806; type: binding; settings: after unlabeled blocking antibody
T1 construct: sEGFR is the recombinant extracellular domain (amino acids 1-621) of the wild-type EGFR); host or cells: CHO cells
Procedure: Briefly, the denatured soluble domain of the EGFR (sEGFR) was coated on to ELISA plates. The unlabeled 124 or 1133 antibodies were then added across the plate in increasing concentrations.

[2] = biological target: T2, Peptide C (C-terminal biotinylated de2-7 peptide) (Homo sapiens, UniProt P00533, DELINS30-297G); test: BIAcore with immobilized Peptide C; type: binding; settings: mAbL8A4 even at 6.25 nM, mAb806 up to 100 nM
T2 construct: purchased Biosource, Camarillo, Calif
Procedure: Peptide C was immobilized on a Streptavidin microsensor chip at a surface density of 350RU (+/−30RU). Serial dilutions of mAbs were tested for reactivity with the peptide. Blocking experiments using non-biotinylated peptide were performed to assess specificity.

A431 xenografts = test: s.c. xenograft therapy study; type: in vivo, nude mice; settings: for mean tumor volume: day 13, 1 mg injection
Procedure: Tumor cells (3×10^6) in […] of PBS were inoculated subcutaneously into both flanks of 4-6 week old female nude mice (Animal Research Centre, Western Australia, Australia). […] Treatment was continued for a total of 6 doses, 3 times per week for 2 weeks. In the established model, treatment was started when tumors had reached a mean volume of 65±6.42 mm^3 (U87MG.Δ2-7), 84±9.07 mm3 (U87MG), 73±7.5 mm^3 (U87MG.wtEGFR) or 201±19.09 mm^3 (A431 tumors). Tumor volume in mm^3 was determined using the formula […], where length was the longest axis and width the measurement at right angles to the length (Clark et al. (2000) Therapeutic efficacy of anti-Lewis (y) humanized 3S 193 radioimmunotherapy in a breast cancer model: enhanced activity when combined with Taxol chemotherapy. Clin. Cancer Res. 6, 3621-3628). Data was expressed as mean tumor volume±S.E. for each treatment group. Statistical analysis was performed at given time points using Student's t-test. Animals were euthanized when the xenografts reached an approximate volume of 1.5 cm^3 and the tumors excised for histological examination. This research project was approved by the Animal Ethics Committee of the Austin and Repatriation Medical Centre.
AG1478 (4-(3-Chloroanilino)-6,7-dimethoxyquinazoline) is a potent and selective inhibitor of the EGFR kinase versus HER2-neu and platelet-derived growth factor receptor kinase (Calbiochem Cat. No. 658552). […] The results are illustrated in FIG. 12. […] 400 μg AG1478 was administered at 0, 2, 4, 7, 9, and 11 days post xenograft.
With respect to “(iv),” different groups of mice received either 0.5 mg/injection of each mAb, or 0.25 mg/injection of each mAb.
Finally, the fourth group of mice, which had been inoculated with A431 cells, received injections as in groups I and III, at 8, 10, 12 and 14 days after inoculation. At the start, the average tumor size was 71 mm^3.
To establish xenografts, mice were injected subcutaneously into the right and left inguinal mammary line with 1×10^6 A431 adenocarcinoma cells or 1×10^6 U87MG.de2-7 glioma cells in 100 μl of PBS. Tumor volume (TV) was calculated by the formula […] where length was the longest axis and width the measurement at right angles to length. […] Therapy was administered on days 6, 8, 11, 13, 15 and 18 for A431, and days 4, 6, 8, 11, 13 and 15 for the U87MG.de2-7 cell lines respectively. Mean±SEM tumor volumes until termination of the experiments due to ethical considerations of tumor burden are presented in FIG. 91 for the A431 xenograft until day 25, and in FIG. 92 for U87MG.de2-7 xenografts until day 31.

xenograft A431 = test: immunohistochemical analysis on xenograft tumors; type: binding, human
From the text: The murine fibroblast line NR6ΔEGFR was used as immunogen. Mouse hybridomas were generated by immunizing BALB/c mice five times subcutaneously at 2- to 3-week intervals, with 5×10^5-2×10^6 cells in adjuvant. Complete Freund's adjuvant was used for the first injection. Thereafter, incomplete Freund's adjuvant (Difco™, Voigt Global Distribution, Lawrence, Kans.) was used. Spleen cells from immunized mice were fused with mouse myeloma cell line SP2/0 (Shulman et al. (1978) Nature 276:269-270). Supernatants of newly generated clones were screened in hemadsorption assays for reactivity with cell line NR6, NR6wtEGFR, and NR6ΔEGFR and then analyzed by hemadsorption assays with human glioblastoma cell lines U87MG, U87MGwtEGFR, and U87ΔEGFR. Selected hybridoma supernatants were subsequently tested by western blotting and further analyzed by immunohistochemistry. Newly generated mAbs showing the expected reactivity pattern were purified.
Bound antibody was detected using the Dako Envision+ HRP detection system as per manufacturer's instructions. Sections were finally rinsed with water, counterstained with hematoxylin and mounted.

U87MG brain xenografts = test: intracranial glioma xenograft treatment; type: in vivo, nude mice; settings: i.p. day 0 through 14
DU145 cells = test: FACS analysis; type: binding, human
From the text: Clearly, mAb806 and mAb175 can recognize only a small proportion of the EGFR on cells in the presence of an autocrine stimulation loop.

[3] = system: Ba/F3 cells expressing the wtEGFR; test: MTT proliferation assay with EGF; type: cell-based, murine; settings: antibody 10 μg/ml
Procedure: Cells growing in log phase were harvested and washed twice with PBS to remove residual IL-3. […] Proliferation was determined using the MTT assay (van de Loosdrecht et al. (1994) J. Immunol. Methods. 174, 311-320).

A431 cells = test: binding to cell lines by FACS; parameters: species or system human
[4] = biological target: T3, biotinylated de2-7 specific peptide (Homo sapiens, UniProt P00533, DELINS30-297G); test: ELISA on de2-7 junctional peptide; type: binding
T3 construct: purchased Auspep, Melbourne, Australia; host or cells: chemical synthesis (Fmoc)
From the text: In the second assay, the biotinylated de2-7 specific peptide (Biotin […] (SEQ ID NO:5)) was bound to ELISA plates precoated with streptavidin (Pierce, Rockford, Ill.). Antibodies were bound and detected as in the first assay.

deglycosylated sEGFR = biological target: T4, deglycosylated sEGFR (Homo sapiens, UniProt P00533); test: immunoblot of PNGase F treated sEGFR; type: binding
T4 construct: sEGFR is the recombinant extracellular domain (amino acids 1-621) of the wild-type EGFR); host or cells: CHO cells
Procedure: To determine if carbohydrate structures are directly involved in the mAb806 epitope, the recombinant sEGFR expressed in CHO cells was treated with PNGase F to remove N-linked glycosylation.

B1: mAb806: murine IgG2b monoclonal antibody, clone 806, ATCC PTA-3858; VH SEQ ID NO:2, VL SEQ ID NO:4 (antibody, listed as Mus musculus, V domains shown)
VH: MRVLILLWLFTAFPGVLSDVQLQESGPSLVKPSQSLSLTCTVTGYSITSDFAWNWIRQFPGNKLEWMGYISYSGNTRYNPSLKSRISITRDTSKNQFFLQLNSVTIEDTATYYCVTAGRGFPYWGQGTLVTVSA
VL: MVSTAQFLAFLLLWFPGARCDILMTQSPSSMSVSLGDTVSITCHSSQDINSNIGWLQQRPGKSFKGLIYHGTNLDDEVPSRFSGSGSGADYSLTISSLESEDFADYYCVQYAQFPWTFGGGTKLEIKR
Binding of biotin-labeled 806 [1]: None
reactivity with Peptide C [2]: did not show detectable specific reactivity
mean tumor volume (A431 xenografts; established model): 451±65.58 mm^3 and 450±70 mm^3
effect on xenograft growth (A431 xenografts; preventative model, 0.1 mg): significantly inhibited; also recorded: inhibited significantly
reduction of tumor volume (A431 xenografts; preventative model, 0.1 mg mAb806, 400 μg AG1478): significant reduction of tumor volume
mean tumor volume (A431 xenografts; preventative model): 260±60.33 mm^3 and 260±60 mm^3
Immunohistochemical staining (xenograft A431): pos. (predominantly basal
effect on survival (U87MG brain xenografts): did not extend survival
binding by FACS (DU145 cells): bind
effect on EGF-induced proliferation [3]: no effect
FACS staining (A431 cells): Low, but highly reproducible, binding
binding to the unique de2-7 EGFR peptide [4]: Neither mAb806 or the 528 antibody bound to the peptide
binding to deglycosylated sEGFR (deglycosylated sEGFR): clearly bound
